Source: patent US20250313631A1 (HUMMINGBIRD BIOSCIENCE PTE, published 2025)
Each block holds one binder with its values, some of them ahead of it.

How the values were obtained:
[1] = target: T1, recombinant human VISTA (His-tagged) (human, UniProt Q9H7M9 33-194); test: ELISA, plate coated with human VISTA
T1 construct: bought soluble protein (Sino Biological); also called hVISTA; human VISTA polypeptide

[2] = target: human CTLA4 (human, UniProt P16410 36-162); test: ELISA, target protein coated, A450 against log M of antibody
human CTLA4, sequence (P16410 36-162 limits assumed): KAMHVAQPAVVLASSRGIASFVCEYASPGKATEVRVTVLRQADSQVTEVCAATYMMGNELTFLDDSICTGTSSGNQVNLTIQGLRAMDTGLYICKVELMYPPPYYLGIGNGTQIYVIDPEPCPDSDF

[3] = target: T1, recombinant human VISTA (His-tagged); test: as above
[4] = target: T2, human B7H3 (human, UniProt Q5ZPR3 29-461, limits assumed); test: as above
T2 construct: also called CD276
T2 sequence (looked up): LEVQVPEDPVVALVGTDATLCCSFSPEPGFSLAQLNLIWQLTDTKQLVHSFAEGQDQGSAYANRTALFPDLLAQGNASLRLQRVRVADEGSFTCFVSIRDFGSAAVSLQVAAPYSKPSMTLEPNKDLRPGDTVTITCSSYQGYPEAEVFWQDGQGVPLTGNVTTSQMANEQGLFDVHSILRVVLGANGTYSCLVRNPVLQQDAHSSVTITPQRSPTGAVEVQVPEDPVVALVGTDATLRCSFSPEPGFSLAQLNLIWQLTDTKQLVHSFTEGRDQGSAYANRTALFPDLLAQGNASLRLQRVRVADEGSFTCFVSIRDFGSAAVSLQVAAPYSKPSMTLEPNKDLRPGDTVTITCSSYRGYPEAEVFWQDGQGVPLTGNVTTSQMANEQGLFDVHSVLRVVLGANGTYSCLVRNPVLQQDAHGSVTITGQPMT

[5] = target: T3, recombinant cynomolgus macaque VISTA (His-tagged) (cynomolgus macaque, UniProt A0A7N9IB00 33-194); test: BLI (Octet QK384): His-tagged cynomolgus VISTA on anti-Penta-HIS tips, V4 1433 to 179.1 nM as analyte, global fit
T3 construct: also called cyno VISTA; cynomolgus monkey VISTA
Protocol: All measurements were performed at 25° C. with agitation at 1000 rpm. Kinetic measurements for antigen binding were performed by loading anti-VISTA antibody at different concentrations (indicated in the Figures) for 120 s, followed by a 120 s dissociation time by transferring the biosensors into assay buffer containing wells. Sensograms were referenced for buffer effects and then fitted using the Octet QK384 user software (Pall ForteBio, USA).
Kinetic responses were subjected to a global fitting using a one site binding model to obtain values for association (kon), dissociation (koff) rate constants and the equilibrium dissociation constant (KD). Only curves that could be reliably fitted with the software (R²>0.90) were included in the analysis.

[6] = target: T4, recombinant mouse VISTA (His-tagged) (mouse, UniProt Q9D659 33-191); test: BLI (Octet), 1:1 global fit, His-tagged mouse VISTA captured
T4 construct: also called murine VISTA; mVISTA
T4 sequence (looked up): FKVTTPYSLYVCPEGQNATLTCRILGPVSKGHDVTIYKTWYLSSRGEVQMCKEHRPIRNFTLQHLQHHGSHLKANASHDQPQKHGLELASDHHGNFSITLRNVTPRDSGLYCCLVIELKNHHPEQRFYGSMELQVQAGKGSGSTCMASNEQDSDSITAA
Protocol: All measurements were performed at 25° C. with agitation at 1000 rpm. […] Sensograms were referenced for buffer effects and then fitted using the Octet QK384 user software (Pall ForteBio, USA).

[7] = target: T5, human VISTA expressed on cells (human, UniProt Q9H7M9 33-311); test: flow cytometry, HEK293T cells expressing the VISTA ortholog
T5 construct: also called HEK293 VISTA O/E; HEK293T or HEK293-6E cells overexpressing human VISTA
Protocol: (§1) To identify myeloid cells, PBMCs were further incubated with CD45 FITC and CD11b PE. Cells were washed again and resuspended in 200 μL of FACS flow buffer (PBS with 5 mM EDTA) for flow cytometric analysis using MACSQuant 10 (Miltenyi). After acquisition, all raw data were analyzed using Flowlogic software. Cells were gated using forward and side scatter, and the percentage of positive cells was determined.

[8] = target: T1, recombinant human VISTA (His-tagged); test: antigen-binding ELISA; HMBD-002 in F2, day 20 at 40°C
[9] = target: T1, recombinant human VISTA (His-tagged); test: antigen-binding ELISA; HMBD-002 in F6, day 10 at 40°C
[10] = target: T6, cynomolgus macaque VISTA expressed on cells (cynomolgus macaque, UniProt A0A7N9IB00 33-311); test: flow cytometry, HEK293T cells expressing the NHP VISTA ortholog
T6 construct: whole, on cells; also called NHP VISTA on HEK293T cells; VISTA on NHP CD11b+ myeloid cells
Protocol: as §1

[11] = target: T1, recombinant human VISTA (His-tagged); test: antigen-binding ELISA; HMBD-002 in F7, day 10 at 40°C
[12] = target: T1, recombinant human VISTA (His-tagged); test: antigen-binding ELISA; reference standard run with the day 0 samples; reference standard, run with the Day 0 samples
[13] = target: T7, human B7H7 (human, UniProt Q9UM44 23-344); test: ELISA, plate coated with human B7H7, antibody titrated
T7 construct: also called HHLA2
T7 sequence (looked up): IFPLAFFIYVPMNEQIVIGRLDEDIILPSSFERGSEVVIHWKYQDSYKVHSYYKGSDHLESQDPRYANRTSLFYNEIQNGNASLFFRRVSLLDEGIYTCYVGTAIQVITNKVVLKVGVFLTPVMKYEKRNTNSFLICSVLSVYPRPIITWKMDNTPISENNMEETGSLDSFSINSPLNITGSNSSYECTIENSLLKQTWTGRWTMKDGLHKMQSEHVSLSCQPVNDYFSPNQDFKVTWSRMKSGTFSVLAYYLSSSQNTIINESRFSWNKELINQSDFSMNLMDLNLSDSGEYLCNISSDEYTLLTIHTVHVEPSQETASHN
Protocol: (§2) 384-well plates were coated with 1 μg/ml of target antigen diluted in PBS for 16 hrs at 4° C. […] After washing, plates were developed with colorimetric detection substrate 3,3′,5,5′-tetramethylbenzidine (Turbo-TMB; Pierce) for 10 min.

[14] = target: T1, recombinant human VISTA (His-tagged); test: ELISA on coated human VISTA, antibody diluted in buffer of pH 5.5
Protocol: as §2

[15] = target: T1, recombinant human VISTA (His-tagged); test: antigen-binding ELISA; HMBD-002 in F2, day 30 at 40°C
[16] = target: T1, recombinant human VISTA (His-tagged); test: antigen-binding ELISA; HMBD-002 in F6, day 20 at 40°C
[17] = target: T8, recombinant rat VISTA (His-tagged) (rat, UniProt A0ABK0L5H3 33-192); test: ELISA, VISTA-HIS protein coated; ELISA, rat VISTA-HIS
T8 sequence: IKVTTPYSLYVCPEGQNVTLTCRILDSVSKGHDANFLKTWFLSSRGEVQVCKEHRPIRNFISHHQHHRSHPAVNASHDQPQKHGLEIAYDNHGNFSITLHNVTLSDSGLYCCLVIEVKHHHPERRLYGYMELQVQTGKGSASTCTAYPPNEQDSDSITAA
Protocol: as §2

EC50 (read off the curve) [1]: ~0.01 nM
B1: anti-VISTA clone V4-C27 IgG1 (antibody, V domains shown)
VH: QVQLQESGPGLVKPSDTLSLTCTVSGYSITSDYTWNWIRQTPGKGLEWIGHITYSGSVSYNPSLRSRVTISRDTSKNQFSLKLSSVTAADTATYSCARALYYPWYFDVWGTGTTVTVSS
VL: EIVLTQSPATLSLSPGERATLSCRASSSVGYIHWYQQKPGQAPRPLIYATYNRATGIPARFSGSGSGTDNTLTISSLEPEDSAVYYCQQWSSYPPITFGGGTKLEVKR

EC50 (read off the curve) [3]: ~0.01 nM
koff [5]: < 1e-07 s⁻¹
kon [5]: 40200 M⁻¹ s⁻¹
Kd [6]: 108 nM
koff [6]: 0.00656 s⁻¹
kon [6]: 60900 M⁻¹ s⁻¹
B2: anti-VISTA clone 4M2-C12 IgG1 (antibody)
heavy: not shown
light: DIVITQTPAILSTSPGEKVTMTCRASSSVGYIHWYQQKPGSSPKPWIYATSNLASGVPARFSGSGSGTSNSLTITRVEAEDAATYYCQQWSSYPPITFGGGTKLEVKRTVAAPSVFIFPPSDEQLKSGTASVVCLLNNFYPREAKVQWKVDNALQSGNSQESVTEQDSKDSTYSLSSTLTLSKADYEKHKVYACEVTHQGLSSPVTKSFNRGEC
notes: mouse variable regions on human IgG1/kappa constant regions; also called V4; V4pr
binding result [2]: no binding (tested: about 10^-7.5 M (log M axis))
binding result [4]: no binding (tested: about 10^-7.5 M (log M axis))

EC50 [7]: 3.74 nM
EC50 [8]: 0.0197 nM
EC50 [9]: 0.0306 nM
EC50 [10]: 2.57 nM
EC50 [11]: 0.0339 nM
EC50 [12]: 0.0307 nM
binding result [13]: no binding (tested: about 3e-8 M)
EC50 [14]: 0.0731 nM
EC50 [15]: 0.0202 nM
EC50 [16]: 0.0186 nM
EC50 [17]: 0.00669 nM
B3: V4-C26 hIgG4 (antibody)
heavy: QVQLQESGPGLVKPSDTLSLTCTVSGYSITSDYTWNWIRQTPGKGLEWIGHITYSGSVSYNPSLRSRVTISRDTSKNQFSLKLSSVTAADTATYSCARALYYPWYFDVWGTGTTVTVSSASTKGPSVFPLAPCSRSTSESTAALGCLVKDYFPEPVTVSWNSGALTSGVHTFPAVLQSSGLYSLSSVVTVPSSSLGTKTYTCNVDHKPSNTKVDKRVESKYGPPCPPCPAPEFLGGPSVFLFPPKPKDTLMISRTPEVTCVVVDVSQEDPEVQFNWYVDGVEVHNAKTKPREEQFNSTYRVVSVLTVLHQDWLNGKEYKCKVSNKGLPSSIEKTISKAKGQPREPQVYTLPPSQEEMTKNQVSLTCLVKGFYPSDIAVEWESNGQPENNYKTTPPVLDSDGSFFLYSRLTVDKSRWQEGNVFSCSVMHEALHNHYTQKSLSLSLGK
light: EIVLTQSPATLSLSPGERATLSCRASSSVGYIHWYQQKPGQAPRPIIYTTSNRATGIPARFSGSGSGTDNTLTISSLEPEDSAVYYCQQWSSYPPITFGGGTKLEVKRTVAAPSVFIFPPSDEQLKSGTASVVCLLNNFYPREAKVQWKVDNALQSGNSQESVTEQDSKDSTYSLSSTLTLSKADYEKHKVYACEVTHQGLSSPVTKSFNRGEC
notes: human IgG4 (S228P)/kappa format; also called HMBD-002; HMBD-002-V4C26
